# From the supplement of paper PMC7877785
# ± gives the uncertainty stated by the source.
# Assay: self-splicing fitness, log relative to wild type (ln ratio); higher = more splicing; Tetrahymena group I intron in knt gene, E. coli kanamycin selection, DiMSum; sequences stand for … in CUCUCU…GGAGGGAAAAGUUAUCAGGCAUGCACCUGGUAGCUAGUCUUUAAACCAAUAGAUUGCAUCGGUUUAAAAGGCAAGACCGUCAAAUUGCGGGAAAGGGGUCAACAGCCGUUCAGUACCAAGUCUCAGGGGAAACUUUGAGAUGGCCUUGCAAAGGGUAUGGUAAUAAGCUGACGGACAUGGUCCUAACCACGCAGCCAAGUCCUAAGUCAACAGAUCUUCUGUUGAUAUGGAUGCAGUUCACAGACUAAAUGUCGGUCGGGGAAGAUGUAUUCUUCUCAUAAGAUAUAGUCGGACCUCUCCUUAAUGGGAGCUAGCGGAUGAAGUGAUGCAACACUGGAGCCGCUGGGAACUAAUUUGUAUGCGAAAGUAUAUUGAUUAGUUUUGGAGUACUCGUGGUCG
# Method in brief: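 Six replicate transformations of E. coli BL21(DE3) with a pET-22b(+) library were grown overnight at 37°C or 30°C. The library randomised all eight P1ex-region intron nucleotides, the intron lying in the knt kanamycin-resistance gene, and plates were LB agar with or without 25 μg/mL kanamycin plus 100 μg/mL carbenicillin, 50 μM IPTG and 0.2% rhamnose. Pooled colonies were amplicon-sequenced on an Illumina HiSeq 2500, and fitness is the DiMSum error-weighted combination of wild-type-normalised replicate fold changes, kanamycin versus none.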
Sequence,self-splicing fitness (ln) (30 °C),self-splicing fitness (ln) (37 °C)
UCAAAGCAAUAUUACGUGCC,-2.35 ± 0.18,-1.57 ± 0.39
UCAAAGCAAUAUUACGUUAA,-3.54 ± 0.19,-0.92 ± 0.12
UCACAGCAAUAUUACGAAUG,-1.77 ± 0.097,-1.61 ± 0.14
UCACAGCAAUAUUACGAGAA,-3.16 ± 0.34,-1.68 ± 0.24
UCACAGCAAUAUUACGAGAU,-4.39 ± 0.25,-2.85 ± 0.24
UCACAGCAAUAUUACGAGUA,-2.02 ± 0.1,-1.52 ± 0.085
UCACAGCAAUAUUACGAUAU,-2.96 ± 0.22,-2.67 ± 0.19
UCACAGCAAUAUUACGAUUG,-2.97 ± 0.12,-1.34 ± 0.11
UCACAGCAAUAUUACGCCUG,-1.21 ± 0.11,-0.438 ± 0.12
UCACAGCAAUAUUACGCGAG,-1.32 ± 0.063,-0.0838 ± 0.077
UCACAGCAAUAUUACGCGUA,-1.09 ± 0.086,-0.297 ± 0.082
UCACAGCAAUAUUACGCGUU,-4 ± 0.21,-2.13 ± 0.17
UCACAGCAAUAUUACGCUUU,-3.36 ± 0.15,-3.6 ± 0.27
UCACAGCAAUAUUACGGAUA,-2.87 ± 0.16,-1.47 ± 0.12
UCACAGCAAUAUUACGGGUA,-1.93 ± 0.13,-0.772 ± 0.1
UCACAGCAAUAUUACGGUCA,-0.0483 ± 0.085,0.318 ± 0.099
UCACAGCAAUAUUACGUAGG,-1.07 ± 0.055,-1.05 ± 0.082
UCACAGCAAUAUUACGUAUU,-3.5 ± 0.15,-2.54 ± 0.14
UCACAGCAAUAUUACGUCAA,-2.7 ± 0.17,-1.46 ± 0.13
UCACAGCAAUAUUACGUCCU,-3.15 ± 0.19,-2.27 ± 0.15
UCACAGCAAUAUUACGUCUU,-1.68 ± 0.12,-2.4 ± 0.16
UCACAGCAAUAUUACGUGAG,-0.886 ± 0.03,-0.396 ± 0.052
UCACAGCAAUAUUACGUGCC,-1.42 ± 0.11,0.00553 ± 0.12
UCAGAGCAAUAUUACGACUU,-2.45 ± 0.19,-3.12 ± 0.38
UCAGAGCAAUAUUACGCAGA,-2.96 ± 0.27,-1.47 ± 0.21

Sequence,self-splicing fitness (ln) (30 °C),self-splicing fitness (ln) (37 °C)
UCAGAGCAAUAUUACGCCAU,,-1.91 ± 0.29
UCAGAGCAAUAUUACGGCUA,-2.46 ± 0.28,-2.11 ± 0.24
UCAGAGCAAUAUUACGGGCG,-2.45 ± 0.17,-2 ± 0.25
UCAGAGCAAUAUUACGGGGG,-2.66 ± 0.23,-3.15 ± 0.35
UCAGAGCAAUAUUACGGGGU,-3.35 ± 0.23,-2.88 ± 0.27
UCAGAGCAAUAUUACGUAGU,-3.58 ± 0.43,-2.88 ± 0.35
UCAGAGCAAUAUUACGUGUU,-4.84 ± 0.27,-2.27 ± 0.17
UCAUAGCAAUAUUACGAACU,-2.36 ± 0.33,-2.08 ± 0.26
UCAUAGCAAUAUUACGACUA,-2.82 ± 0.29,-1.78 ± 0.24
UCAUAGCAAUAUUACGAGCA,-0.736 ± 0.2,-1.11 ± 0.23
UCAUAGCAAUAUUACGCAAA,-2.54 ± 0.25,-1.72 ± 0.3
UCAUAGCAAUAUUACGCCGA,-0.67 ± 0.18,0.277 ± 0.18
UCAUAGCAAUAUUACGCCGG,-1.25 ± 0.12,-0.72 ± 0.12
UCAUAGCAAUAUUACGCGAU,-1.9 ± 0.22,
UCAUAGCAAUAUUACGCUGC,-3.13 ± 0.31,-2.52 ± 0.41
UCAUAGCAAUAUUACGGAAC,-4.02 ± 0.47,
UCAUAGCAAUAUUACGGCCA,,-0.442 ± 0.46
UCAUAGCAAUAUUACGGGUG,-1.94 ± 0.093,-0.795 ± 0.085
UCAUAGCAAUAUUACGGGUU,-4.83 ± 0.36,-3.34 ± 0.25
UCAUAGCAAUAUUACGGUCG,-1.14 ± 0.083,-0.0517 ± 0.1
UCAUAGCAAUAUUACGUACU,-4.14 ± 0.19,-2.96 ± 0.19
UCAUAGCAAUAUUACGUCAG,-2.96 ± 0.18,-1.36 ± 0.15
UCAUAGCAAUAUUACGUCCA,-1.07 ± 0.16,-0.442 ± 0.17
UCAUAGCAAUAUUACGUCCC,-2.19 ± 0.49,
UCAUAGCAAUAUUACGUCGC,-2.62 ± 0.3,-2.78 ± 0.34

Sequence,self-splicing fitness (ln) (30 °C),self-splicing fitness (ln) (37 °C)
UCCAAGCAAUAUUACGAAAG,-2.45 ± 0.19,-3.23 ± 0.35
UCCAAGCAAUAUUACGACAG,-3.81 ± 0.35,-1.47 ± 0.26
UCCAAGCAAUAUUACGACCA,-1.63 ± 0.16,-0.935 ± 0.17
UCCAAGCAAUAUUACGAUAA,-2.01 ± 0.11,-0.704 ± 0.11
UCCAAGCAAUAUUACGCAAC,-4.2 ± 0.37,-3.04 ± 0.31
UCCAAGCAAUAUUACGCAGC,-2.73 ± 0.21,-2.89 ± 0.32
UCCAAGCAAUAUUACGCCAA,-2.68 ± 0.21,-0.487 ± 0.22
UCCAAGCAAUAUUACGCCGG,-1.53 ± 0.11,-0.578 ± 0.14
UCCAAGCAAUAUUACGCGCA,0.131 ± 0.064,0.306 ± 0.079
UCCAAGCAAUAUUACGCGCU,-2.67 ± 0.21,-1.52 ± 0.23
UCCAAGCAAUAUUACGGAUA,-2.57 ± 0.13,-1.22 ± 0.089
UCCAAGCAAUAUUACGGGAG,-2.57 ± 0.16,-2.9 ± 0.35
UCCAAGCAAUAUUACGGUCG,-2.37 ± 0.097,-0.886 ± 0.099
UCCAAGCAAUAUUACGUAAC,-3.57 ± 0.17,-1.41 ± 0.15
UCCAAGCAAUAUUACGUACA,-0.123 ± 0.1,-0.835 ± 0.12
UCCAAGCAAUAUUACGUUAA,-2.37 ± 0.12,-0.463 ± 0.1
UCCCAGCAAUAUUACGACUC,-3.89 ± 0.25,-1.91 ± 0.24
UCCCAGCAAUAUUACGAGCC,-2.16 ± 0.28,-1.96 ± 0.31
UCCCAGCAAUAUUACGAUAA,-2.32 ± 0.12,-1.85 ± 0.14
UCCCAGCAAUAUUACGAUUU,-3.49 ± 0.11,-1.52 ± 0.097
UCCCAGCAAUAUUACGCAUA,-1.47 ± 0.16,-1.27 ± 0.15
UCCCAGCAAUAUUACGCCUU,-3.44 ± 0.2,-1.28 ± 0.15
UCCCAGCAAUAUUACGCGGA,-2.72 ± 0.17,-1.12 ± 0.12
UCCCAGCAAUAUUACGCUAA,-1.75 ± 0.11,-0.958 ± 0.091
UCCCAGCAAUAUUACGCUGC,-3.59 ± 0.24,-2.75 ± 0.34

Sequence,self-splicing fitness (ln) (30 °C),self-splicing fitness (ln) (37 °C)
UCCCAGCAAUAUUACGGACC,-3.42 ± 0.27,0.0123 ± 0.17
UCCCAGCAAUAUUACGGAUG,-3.49 ± 0.2,-1.31 ± 0.15
UCCCAGCAAUAUUACGGAUU,-2.66 ± 0.092,-0.582 ± 0.08
UCCCAGCAAUAUUACGGCGC,-1.67 ± 0.091,-0.401 ± 0.14
UCCCAGCAAUAUUACGGCUG,,-1.42 ± 0.48
UCCCAGCAAUAUUACGGGAC,-2.69 ± 0.17,-2.49 ± 0.3
UCCCAGCAAUAUUACGUAAA,-0.605 ± 0.065,0.00983 ± 0.085
UCCCAGCAAUAUUACGUACC,,0.327 ± 0.33
UCCCAGCAAUAUUACGUAGA,-0.0439 ± 0.054,0.435 ± 0.073
UCCCAGCAAUAUUACGUAGC,-2.68 ± 0.12,-2.19 ± 0.16
UCCCAGCAAUAUUACGUCAU,-4.04 ± 0.2,-2.09 ± 0.18
UCCCAGCAAUAUUACGUCCC,-3.08 ± 0.25,-0.845 ± 0.26
UCCCAGCAAUAUUACGUCGU,-1.69 ± 0.085,-0.682 ± 0.11
UCCCAGCAAUAUUACGUCUG,-3.05 ± 0.17,-2.85 ± 0.31
UCCCAGCAAUAUUACGUUCU,-3.47 ± 0.21,-2.5 ± 0.22
UCCCAGCAAUAUUACGUUGG,-3.37 ± 0.12,-1.5 ± 0.13
UCCCAGCAAUAUUACGUUGU,-4.06 ± 0.15,-1.97 ± 0.11
UCCCAGCAAUAUUACGUUUA,-2.21 ± 0.12,-1.79 ± 0.13
UCCGAGCAAUAUUACGAAAG,-3.3 ± 0.33,-2.65 ± 0.32
UCCGAGCAAUAUUACGAAUA,-2.95 ± 0.25,
UCCGAGCAAUAUUACGAAUU,-3.49 ± 0.28,-2.19 ± 0.35
UCCGAGCAAUAUUACGACAA,-2.23 ± 0.46,
UCCGAGCAAUAUUACGACUA,-2.51 ± 0.28,-2.21 ± 0.27
